{
  "source": "patent US20050021237A1",
  "about": "“Method and apparatus for evaluating new chemical entities” (priority 2003, published 2005)",
  "key": {"[1]": {"conditions": "primates; cited from earlier work"}, "[2]": {"test": "Toxicology studies in primates", "assay_type": "in vivo", "conditions": "Phase I and primate toxicology data taken together", "text": "(§1) In the absence of more accurate TI data, this value is used in the example. LY203638 is classified as a cardiovascular agent (since there are no prior data for hematologic agents and it is not antimicrobial). The limitations in acquiring appropriate data for LY203638 underscores the requirement to have unfettered access to the NCE's data in order to optimize Pharminator's predictive accuracy."}, "[3]": {"test": "Phase I studies (Clinical Investigator's Brochure)", "assay_type": "in vivo, humans", "conditions": "from Phase I doses ranging from 12-48 μg/kg/hour (48/12)", "text": "as §1"}},
  "data": [
    {"substance": "Recombinant human activated protein C [LY203638]", "values": [
      {"measurement": "dose at which toxic effects observed", "setting": "[1]", "value": 8, "unit": "mg/m^2/hour"},
      {"measurement": "no-observed-adverse-effect level", "setting": "[1]", "value": 2, "unit": "mg/m^2/hour"},
      {"measurement": "therapeutic index (TI)", "setting": "[2]", "value": "approximately 4"},
      {"measurement": "therapeutic index (TI)", "setting": "[3]", "value": "at least 4"}
    ]}
  ]
}
